Experimental data reported in PMC4811774.
One block for each substance: values may come before it.

Columns and labels:
[1] = target: TOC translocons in TOC75ΔP1#2 chloroplasts (Arabidopsis thaliana | Arabidopsis thaliana (endogenous in chloroplasts)) (UniProt Q9STE8); test: saturation binding to isolated chloroplasts; apparent; increasing amounts of urea-denatured preSSU-FLAG-HIS with 10^7 isolated chloroplasts, 0.1 mM ATP and GTP, 26°C, 5 min (early import intermediate); chloroplasts reisolated through Percoll, anti-FLAG immunoblot, non-linear regression
[2] = target: TOC translocons in TOC75 chloroplasts (Arabidopsis thaliana | Arabidopsis thaliana (endogenous in chloroplasts)) (UniProt Q9STE8); test: as above
[3] = target: TOC translocons in TOC75ΔP1-2#2 chloroplasts (Arabidopsis thaliana | Arabidopsis thaliana (endogenous in chloroplasts)) (UniProt Q9STE8); test: other; apparent Kd, isolated chloroplasts, 0.1 mM ATP and GTP; conditions: natural protein
[4] = target: Toc75 POTRA-His (protein fragment encompassing all three Toc75 POTRA domains and a C-terminal hexahistidine tag) (Arabidopsis thaliana) (UniProt Q9STE8); test: pull-down; solid phase binding: increasing amounts of POTRA-His immobilised on Ni-NTA resin, incubated with in vitro translated 35S-labelled proteins in HMK buffer (50 mM Hepes-KOH pH 7.5, 2 mM MgCl2, 40 mM KOAc) with 10 mM imidazole and 0.1% Triton X-100, 30 min, 23°C; phosphorimaging

Kd [1]: 188 nM
Kd [2]: 159 nM
Substance: preSSU-FLAG-HIS (from UniProt P10795 55-180) (natural protein)

Kd [3]: 126 nM
Substance: preSSU-FLAG-HIS (from UniProt P10795 55-180)

maximum binding, percent of added radiolabeled protein [4]: 77%
Substance: [35S]preSSU (from UniProt P10795 1-180) (natural protein)
